Data on 5 molecules can be found in publication PMC8695382 (Nature, 2021).

B4: Mcm5 (natural protein, Saccharomyces cerevisiae)
chain: MSFDRPEIYSAPVLQGESPNDDDNTEIIKSFKNFILEFRLDSQFIYRDQLRNNILVKNYSLTVNMEHLIGYNEDIYKKLSDEPSDIIPLFETAITQVAKRISILSRAQSANNNDKDPENTSMDTDSLLLNSLPTFQLILNSNANQIPLRDLDSEHVSKIVRLSGIIISTSVLSSRATYLSIMCRNCRHTTSITINNFNSITGNTVSLPRSCLSTIESESSMANESNIGDESTKKNCGPDPYIIIHESSKFIDQQFLKLQEIPELVPVGEMPRNLTMTCDRYLTNKVIPGTRVTIVGIYSIYNSKNGAGSGRSGGGNGGSGVAIRTPYIKILGIQSDVETSSIWNSVTMFTEEEEEEFLQLSRNPKLYEILTNSIAPSIFGNEDIKKAIVCLLMGGSKKILPDGMRLRGDINVLLLGDPGTAKSQLLKFVEKVSPIAVYTSGKGSSAAGLTASVQRDPMTREFYLEGGAMVLADGGVVCIDEFDKMRDEDRVAIHEAMEQQTISIAKAGITTVLNSRTSVLAAANPIYGRYDDLKSPGDNIDFQTTILSRFDMIFIVKDDHNEERDISIANHVINIHTGNANAMQNQQEENGSEISIEKMKRYITYCRLKCAPRLSPQAAEKLSSNFVTIRKQLLINELESTERSSIPITIRQLEAIIRITESLAKLELSPIAQERHVDEAIRLFQASTMDAASQDPIGGLNQASGTSLSEIRRFEQELKRRLPIGWSTSYQTLRREFVDTHRFSQLALDKALYALEKHETIQLRHQGQNIYRSGV
notes: Mcm5, S. cerevisiae; Subunit of m2; source: purified as part of CMG

Common to all, as to test: cryo-EM structure; yeast replisome–SCF^Dia2 complexes after gradient fixation; particles translocated onto dsDNA (conformations I and II)
Common to all, as to conditions: both partners purified

In the test “Mcm5” the target is B4.
A further test has as its target T1, Dia2 (Saccharomyces cerevisiae, UniProt Q08496 1-732).
T1 construct: Dia2, F-box protein, S. cerevisiae; model built for F-box (211–247), LRRs (248–716) and C-terminal tail (717–732); N-terminal TPR domain not visible; Subunit of m1 as it stands in the cryo-EM samples; also called Dia2^LRR (its leucine-rich repeat domain); source: purified as part of SCF^Dia2
T1 sequence: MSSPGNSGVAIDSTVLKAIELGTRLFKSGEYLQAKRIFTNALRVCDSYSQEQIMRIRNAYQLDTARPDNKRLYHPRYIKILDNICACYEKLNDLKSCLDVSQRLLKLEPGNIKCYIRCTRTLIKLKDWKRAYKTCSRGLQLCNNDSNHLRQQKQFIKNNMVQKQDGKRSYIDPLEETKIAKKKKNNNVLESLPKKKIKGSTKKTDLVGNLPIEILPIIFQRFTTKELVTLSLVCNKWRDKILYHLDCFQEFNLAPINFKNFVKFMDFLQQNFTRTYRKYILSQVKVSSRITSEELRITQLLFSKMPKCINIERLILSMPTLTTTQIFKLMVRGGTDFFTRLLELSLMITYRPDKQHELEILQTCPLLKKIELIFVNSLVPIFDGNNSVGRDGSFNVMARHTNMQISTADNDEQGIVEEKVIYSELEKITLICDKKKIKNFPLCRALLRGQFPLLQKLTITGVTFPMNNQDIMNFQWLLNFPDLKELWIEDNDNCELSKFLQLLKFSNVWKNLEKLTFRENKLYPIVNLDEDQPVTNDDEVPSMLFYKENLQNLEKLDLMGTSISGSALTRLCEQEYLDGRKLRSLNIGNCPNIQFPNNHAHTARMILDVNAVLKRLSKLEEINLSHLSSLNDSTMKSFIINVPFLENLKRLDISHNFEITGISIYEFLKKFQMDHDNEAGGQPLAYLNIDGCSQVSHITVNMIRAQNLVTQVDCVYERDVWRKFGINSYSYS

Another test has as its target T2, Pol2 (Saccharomyces cerevisiae, UniProt P21951 1-2222).
T2 construct: Pol2, catalytic subunit of DNA polymerase ε, S. cerevisiae; catalytic domain ends at residue 1186, non-catalytic domain begins at residue 1321; Subunit of m15; source: purified as part of Pol-ε

For the next test, the target named is T3, Mcm3 (Saccharomyces cerevisiae, UniProt P24279 1-971).
T3 construct: Mcm3, S. cerevisiae; Subunit of m2; source: purified as part of CMG
T3 sequence (P24279 whole entry): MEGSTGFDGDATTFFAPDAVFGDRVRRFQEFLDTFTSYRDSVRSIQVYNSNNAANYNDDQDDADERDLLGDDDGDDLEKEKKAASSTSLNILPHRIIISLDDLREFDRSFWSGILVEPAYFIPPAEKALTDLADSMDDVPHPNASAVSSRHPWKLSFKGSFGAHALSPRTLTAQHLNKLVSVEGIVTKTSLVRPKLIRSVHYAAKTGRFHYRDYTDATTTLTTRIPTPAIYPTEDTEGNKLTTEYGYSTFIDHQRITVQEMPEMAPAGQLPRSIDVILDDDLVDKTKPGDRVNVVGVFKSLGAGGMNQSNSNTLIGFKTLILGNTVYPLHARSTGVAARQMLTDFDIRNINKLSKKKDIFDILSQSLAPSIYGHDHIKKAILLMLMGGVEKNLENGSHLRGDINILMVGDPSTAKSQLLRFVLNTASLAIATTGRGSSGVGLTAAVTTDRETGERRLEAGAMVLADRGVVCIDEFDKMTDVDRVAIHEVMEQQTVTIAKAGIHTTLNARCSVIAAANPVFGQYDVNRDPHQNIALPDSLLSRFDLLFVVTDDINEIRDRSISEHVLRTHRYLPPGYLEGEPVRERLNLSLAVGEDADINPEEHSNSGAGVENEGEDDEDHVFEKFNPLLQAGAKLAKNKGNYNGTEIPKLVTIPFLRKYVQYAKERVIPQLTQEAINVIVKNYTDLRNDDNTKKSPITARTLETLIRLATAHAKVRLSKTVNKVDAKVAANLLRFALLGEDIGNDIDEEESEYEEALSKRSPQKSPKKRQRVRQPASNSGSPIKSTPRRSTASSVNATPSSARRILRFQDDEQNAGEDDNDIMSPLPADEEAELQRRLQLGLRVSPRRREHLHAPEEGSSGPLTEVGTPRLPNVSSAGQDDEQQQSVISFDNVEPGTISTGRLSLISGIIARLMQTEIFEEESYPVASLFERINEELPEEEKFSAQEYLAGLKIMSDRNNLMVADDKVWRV

T2 sequence (P21951 whole entry, the tested form may be a part): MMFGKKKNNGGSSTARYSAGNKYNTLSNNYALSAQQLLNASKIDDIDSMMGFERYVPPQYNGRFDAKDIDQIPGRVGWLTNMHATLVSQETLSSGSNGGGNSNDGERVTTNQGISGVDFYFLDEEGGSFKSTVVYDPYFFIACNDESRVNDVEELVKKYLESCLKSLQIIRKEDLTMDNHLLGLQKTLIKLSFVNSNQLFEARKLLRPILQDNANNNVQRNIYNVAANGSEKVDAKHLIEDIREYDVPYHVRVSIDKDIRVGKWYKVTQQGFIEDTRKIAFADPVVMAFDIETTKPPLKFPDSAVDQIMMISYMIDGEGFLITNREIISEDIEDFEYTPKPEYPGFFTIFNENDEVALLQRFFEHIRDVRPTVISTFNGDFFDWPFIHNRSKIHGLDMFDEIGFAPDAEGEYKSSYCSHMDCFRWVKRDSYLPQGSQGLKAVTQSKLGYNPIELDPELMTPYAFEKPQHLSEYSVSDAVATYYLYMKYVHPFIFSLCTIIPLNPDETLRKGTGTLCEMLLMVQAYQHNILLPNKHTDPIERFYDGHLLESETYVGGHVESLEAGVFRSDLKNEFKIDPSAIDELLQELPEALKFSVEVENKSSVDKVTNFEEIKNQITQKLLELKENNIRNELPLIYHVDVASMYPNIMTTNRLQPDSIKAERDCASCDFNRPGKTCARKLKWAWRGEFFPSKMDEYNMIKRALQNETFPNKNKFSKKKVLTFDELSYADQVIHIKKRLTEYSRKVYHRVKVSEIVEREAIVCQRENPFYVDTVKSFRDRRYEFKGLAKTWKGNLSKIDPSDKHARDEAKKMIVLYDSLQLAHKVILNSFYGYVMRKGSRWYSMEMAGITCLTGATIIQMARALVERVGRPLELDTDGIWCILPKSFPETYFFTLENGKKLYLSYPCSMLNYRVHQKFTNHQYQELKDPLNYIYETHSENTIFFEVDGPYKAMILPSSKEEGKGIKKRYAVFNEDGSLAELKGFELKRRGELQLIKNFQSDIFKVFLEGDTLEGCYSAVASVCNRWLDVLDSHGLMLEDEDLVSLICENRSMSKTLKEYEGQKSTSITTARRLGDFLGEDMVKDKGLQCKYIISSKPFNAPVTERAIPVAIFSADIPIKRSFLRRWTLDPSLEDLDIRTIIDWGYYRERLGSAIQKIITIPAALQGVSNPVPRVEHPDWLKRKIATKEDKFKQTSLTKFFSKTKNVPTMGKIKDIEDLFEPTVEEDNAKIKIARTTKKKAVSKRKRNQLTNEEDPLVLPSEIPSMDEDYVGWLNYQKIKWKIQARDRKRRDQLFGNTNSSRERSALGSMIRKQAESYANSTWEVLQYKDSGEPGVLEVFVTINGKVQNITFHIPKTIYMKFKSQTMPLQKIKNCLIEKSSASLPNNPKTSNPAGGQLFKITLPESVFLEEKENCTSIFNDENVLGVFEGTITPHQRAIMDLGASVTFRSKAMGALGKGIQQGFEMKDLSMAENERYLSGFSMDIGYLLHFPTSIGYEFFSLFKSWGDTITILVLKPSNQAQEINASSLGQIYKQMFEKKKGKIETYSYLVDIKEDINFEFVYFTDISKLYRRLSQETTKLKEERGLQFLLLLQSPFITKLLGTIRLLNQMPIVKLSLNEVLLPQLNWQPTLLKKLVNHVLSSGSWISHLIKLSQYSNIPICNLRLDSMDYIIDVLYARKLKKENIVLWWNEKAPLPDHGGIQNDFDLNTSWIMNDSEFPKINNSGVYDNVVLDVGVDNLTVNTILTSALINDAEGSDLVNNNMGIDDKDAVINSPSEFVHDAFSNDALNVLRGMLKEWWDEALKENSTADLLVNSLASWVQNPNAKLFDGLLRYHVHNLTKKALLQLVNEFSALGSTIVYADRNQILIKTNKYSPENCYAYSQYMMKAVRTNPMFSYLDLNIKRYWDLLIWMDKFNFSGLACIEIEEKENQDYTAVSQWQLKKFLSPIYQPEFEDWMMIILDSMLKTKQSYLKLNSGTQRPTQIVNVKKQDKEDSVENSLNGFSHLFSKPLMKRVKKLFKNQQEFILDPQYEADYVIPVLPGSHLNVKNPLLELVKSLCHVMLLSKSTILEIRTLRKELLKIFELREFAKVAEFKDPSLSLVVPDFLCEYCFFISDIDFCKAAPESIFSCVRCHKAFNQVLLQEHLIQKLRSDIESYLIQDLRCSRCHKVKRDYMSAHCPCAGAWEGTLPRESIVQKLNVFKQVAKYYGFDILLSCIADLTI

B1: Dpb2 (natural protein, Saccharomyces cerevisiae)
chain: MFGSGNVLPVKIQPPLLRPLAYRVLSRKYGLSIKSDGLSALAEFVGTNIGANWRQGPATIKFLEQFAAVWKQQERGLFIDQSGVKEVIQEMKEREKVEWSHEHPIQHEENILGRTDDDENNSDDEMPIAADSSLQNVSLSSPMRQPTERDEYKQPFKPESSKALDWRDYFKVINASQQQRFSYNPHKMQFIFVPNKKQNGLGGIAGFLPDIEDKVQMFLTRYYLTNDRVMRNENFQNSDMFNPLSSMVSLQNELSNTNRQQQSSSMSITPIKNLLGRDAQNFLLLGLLNKNFKGNWSLEDPSGSVEIDISQTIPTQGHYYVPGCMVLVEGIYYSVGNKFHVTSMTLPPGERREITLETIGNLDLLGIHGISNNNFIARLDKDLKIRLHLLEKELTDHKFVILGANLFLDDLKIMTALSKILQKLNDDPPTLLIWQGSFTSVPVFASMSSRNISSSTQFKNNFDALATLLSRFDNLTENTTMIFIPGPNDLWGSMVSLGASGTLPQDPIPSAFTKKINKVCKNVVWSSNPTRIAYLSQEIVIFRDDLSGRFKRHRLEFPFNESEDVYTENDNMMSKDTDIVPIDELVKEPDQLPQKVQETRKLVKTILDQGHLSPFLDSLRPISWDLDHTLTLCPIPSTMVLCDTTSAQFDLTYNGCKVINPGSFIHNRRARYMEYVPSSKKTIQEEIYI
notes: Dpb2, subunit of DNA polymerase ε, S. cerevisiae; Subunit of m15; source: purified as part of Pol-ε
For the molecule B1, in the test with Mcm5, the binding result is on record as “binds”.

B2: Csm3 (natural protein, Saccharomyces cerevisiae)
chain: MDQDFDSLLLGFNDSDSVQKDPTVPNGLDGSVVDPTIADPTAITARKRRPQVKLTAEKLLSDKGLPYVLKNAHKRIRISSKKNSYDNLSNIIQFYQLWAHELFPKAKFKDFMKICQTVGKTDPVLREYRVSLFRDEMGMSFDVGTRETGQDLERQSPMVEEHVTSAEERPIVADSFAQDKRNVNNVDYDNDEDDDIYHLSYRNRRGRVLDERGNNETVLNNVVPPKEDLDALLKTFRVQGPVGLEENEKKLLLGWLDAHRKMEKGSMTEEDVQLIQSLEEWEMNDIEGQHTHYDLLPGGDEFGVDQDELDAMKEMGF
notes: Csm3, S. cerevisiae; Subunit of m12; source: purified as part of Tof1–Csm3
Turning to B2, in the test with Dia2, the binding result is reported as “binds”.

B3: Mcm2 (natural protein, Saccharomyces cerevisiae)
chain: MSDNRRRRREEDDSDSENELPPSSPQQHFRGGMNPVSSPIGSPDMINPEGDDNEVDDVPDIDEVEEQMNEVDLMDDNMYEDYAADHNRDRYDPDQVDDREQQELSLSERRRIDAQLNERDRLLRNVAYIDDEDEEQEGAAQLDEMGLPVQRRRRRRQYEDLENSDDDLLSDMDIDPLREELTLESLSNVKANSYSEWITQPNVSRTIARELKSFLLEYTDETGRSVYGARIRTLGEMNSESLEVNYRHLAESKAILALFLAKCPEEMLKIFDLVAMEATELHYPDYARIHSEIHVRISDFPTIYSLRELRESNLSSLVRVTGVVTRRTGVFPQLKYVKFNCLKCGSILGPFFQDSNEEIRISFCTNCKSKGPFRVNGEKTVYRNYQRVTLQEAPGTVPPGRLPRHREVILLADLVDVSKPGEEVEVTGIYKNNYDGNLNAKNGFPVFATIIEANSIKRREGNTANEGEEGLDVFSWTEEEEREFRKISRDRGIIDKIISSMAPSIYGHRDIKTAVACSLFGGVPKNVNGKHSIRGDINVLLLGDPGTAKSQILKYVEKTAHRAVFATGQGASAVGLTASVRKDPITKEWTLEGGALVLADKGVCLIDEFDKMNDQDRTSIHEAMEQQSISISKAGIVTTLQARCSIIAAANPNGGRYNSTLPLAQNVSLTEPILSRFDILCVVRDLVDEEADERLATFVVDSHVRSHPENDEDREGEELKNNGESAIEQGEDEINEQLNARQRRLQRQRKKEEEISPIPQELLMKYIHYARTKIYPKLHQMDMDKVSRVYADLRRESISTGSFPITVRHLESILRIAESFAKMRLSEFVSSYDLDRAIKVVVDSFVDAQKVSVRRQLRRSFAIYTLGH
notes: Mcm2, S. cerevisiae; Subunit of m2; source: purified as part of CMG
Regarding B3, in the test with Pol2, the binding result is “binds”.

As for B4, the binding result in the test with Pol2 was “binds”.

B5: Mcm7 (natural protein, Saccharomyces cerevisiae)
chain: MSAALPSIQLPVDYNNLFNEITDFLVTFKQDTLSSDATRNENEDENLDAENIEQHLLEKGPKYMAMLQKVANRELNSVIIDLDDILQYQNEKFLQGTQADDLVSAIQQNANHFTELFCRAIDNNMPLPTKEIDYKDDVLDVILNQRRLRNERMLSDRTNEIRSENLMDTTMDPPSSMNDALREVVEDETELFPPNLTRRYFLYFKPLSQNCARRYRKKAISSKPLSVRQIKGDFLGQLITVRGIITRVSDVKPAVEVIAYTCDQCGYEVFQEVNSRTFTPLSECTSEECSQNQTKGQLFMSTRASKFSAFQECKIQELSQQVPVGHIPRSLNIHVNGTLVRSLSPGDIVDVTGIFLPAPYTGFKALKAGLLTETYLEAQFVRQHKKKFASFSLTSDVEERVMELITSGDVYNRLAKSIAPEIYGNLDVKKALLLLLVGGVDKRVGDGMKIRGDINVCLMGDPGVAKSQLLKAICKISPRGVYTTGKGSSGVGLTAAVMKDPVTDEMILEGGALVLADNGICCIDEFDKMDESDRTAIHEVMEQQTISISKAGINTTLNARTSILAAANPLYGRYNPRLSPLDNINLPAALLSRFDILFLMLDIPSRDDDEKLAEHVTYVHMHNKQPDLDFTPVEPSKMREYIAYAKTKRPVMSEAVNDYVVQAYIRLRQDSKREMDSKFSFGQATPRTLLGIIRLSQALAKLRLADMVDIDDVEEALRLVRVSKESLYQETNKSKEDESPTTKIFTIIKKMLQETGKNTLSYENIVKTVRLRGFTMLQLSNCIQEYSYLNVWHLINEGNTLKFVDDGTMDTDQEDSLVSTPKLAPQTTASANVSAQDSDIDLQDA
notes: Mcm7, S. cerevisiae; Subunit of m2; source: purified as part of CMG
Consider B5, for which the binding result in the test with Mcm3 is “binds”.
